The source of these data is patent US20240279622A1, “COELENTERAZINE-UTILIZING LUCIFERASES WITH STABLE GLOW-TYPE LIGHT EMISSION AND METHODS OF PRODUCING AND USING THEREOF” (MASARYKOVA UNIVERZITA, priority 2021, published 2024).

As usually defined, the kcat is the maximal rate divided by the concentration of active sites. As usually defined, the Tm is the temperature at the midpoint of the melting transition.

Some results are limits rather than exact numbers.

The nature of data set [1]: Anaerobic equilibrium binding of coelenterazine substrate (fluorescence). The conditions noted are these: for Kd: anaerobic, pH 7.5, 30° C., read-out: Dissociation constant Kd, Coelenterazine substrate. As to the method: The experiments were performed under strictly anaerobic conditions to prevent enzymatic oxidation of interacting ligands. To do so, all the equipment and material, including water, buffer, pipettes, tips, syringes, microplates, and sealing, were made anaerobic by incubating them overnight in the anaerobic glovebox Belle MR2 (Belle Technology, UK). The box was filled with ultra-high purity (UHP) nitrogen atmosphere containing the residual oxygen concentration of 2.3 ppm, as determined by the oxygen meter O2M-3 (Belle Technology, UK). Liquids were aliquoted to the volume of maximally 50 mL and were stirred overnight in the box to release any dissolved oxygen. Two hours prior to the experiment, a closed bottle with an evacuated lyophilized enzyme (oxygen depleted) was put into the glovebox, dissolved with anaerobic water, and incubated to remove any remaining oxygen possibly dissolved in the solution. Similarly, the stock solution of coelenterazine or coelenteramide in ethanol, which was long-term stored in a freezer under the nitrogen atmosphere without oxygen, was put into the glovebox in a closed bottle. A small aliquot of coelenterazine/coelenteramide was transferred into a new empty bottle and kept open for about 20 minutes to remove the remaining dissolved oxygen. After the incubation, a few microliters of an enzyme were mixed with the same amount of coelenterazine, and the mixture was visually inspected for any possible bioluminescence. If no light was observed and the mixture remained yellow even after a minute, all the reagents were ready for anaerobic measurements.
In the anaerobic glovebox, 200 μL of a differently concentrated enzyme was put into a separate well in a microplate and into each of these wells, 5 μL of coelenterazine or coelenteramide stock solution was added. As a blank, 200 μL of the enzyme was mixed with 5 μL of ethanol for each enzyme concentration. […] The extent of coelenterazine binding at each concentration was determined by measuring fluorescence spectra ranging from 480 to 580 nm upon excitation at 420 nm using the microplate spectrophotometer Varioskan LUX (Thermo Scientific, USA). Binding of coelenteramide was monitored by measuring fluorescence spectra ranging from 350 to 700 nm upon excitation at 330 nm. […]
The obtained fluorescence spectra were visually inspected for characteristic peaks, and the value of the maximal fluorescence intensity Fluomax at these peaks was plotted against the enzyme concentration. The final value of the dissociation constant Kd was determined by fitting the dependence with the hyperbolic Equation (8) using the software Origin 6.1 (OriginLab, USA).

Data set [2] in a line: Stopped-flow pre-steady-state kinetics of substrate binding (tryptophan fluorescence quenching). The conditions noted are these: 15° C.; for k+2 / k−1 / k−2: pH 7.5; for k+1: pH 7.5, induced-fit binding mechanism. As to the method: The measurement was performed at 15° C. in 100 mM potassium phosphate buffer pH 7.5. Rapid mixing of the components was achieved using the Stopped-Flow SFM 3000 combined with the MOS-500 spectrometer (BioLogic, France). The reaction was initiated by mixing 75 μL of an enzyme with 75 μL of coelenterazine and then monitored by the change of native tryptophan fluorescence (295 nm excitation, 340±13 nm emission). The fluorescence changes were caused by the quenching effect of the coelenterazine substrate upon its binding by an enzyme. The experiment was designed in two different modes, varying either the concentration of the coelenterazine substrate or the concentration of an enzyme. Each kinetic trace was measured in seven consecutive replicates and averaged. The concentration of coelenterazine in the final reaction mixture ranged from 0.9 to 90 μM while the concentration of luciferase enzymes ranged from 0.4 to 94 μM.
The collected double-exponential kinetic traces were fitted globally with the KinTek Explorer (KinTek Corporation, USA). The software allows for the input of a given kinetic model via a simple text description, and the program then derives the differential equations needed for numerical integration automatically. Numerical integration of rate equations searching a set of kinetic parameters that produce a minimum χ^2 value was performed using the Bulirsch-Stoer algorithm with adaptive step size, and nonlinear regression to fit data was based on the Levenberg-Marquardt method. Residuals were normalized by sigma values for each data point. The standard error was calculated from the covariance matrix during nonlinear regression. In addition to standard error values, more rigorous analysis of the variation of the kinetic parameters was accomplished by confidence contour analysis by using FitSpace Explorer (KinTek Corporation, USA). In these analyses, the lower and upper limits for each parameter were derived from the confidence contour obtained from setting the χ^2 threshold at 0.95.
The time-course of the fluorescence quenching upon substrate binding was described with Equation (7) according to the induced-fit binding mechanism and the mechanism was fit directly to the collected kinetic data to obtain the values of elementary rate constants describing the substrate binding process. The quality of the best fits was compared in terms of χ^2 values, “chi-by-eye” assessment, and confidence contour analysis assessing constraint and independency of the determined parameters which confirmed that the obtained values are well-defined by the collected kinetic data.

Data set [3] is described as follows: Steady-state kinetic analysis of full-conversion cumulative luminescence curves. In kind it is biochemical. To be noted: for kcat / Kd: 100 mM phosphate buffer pH 7.5, 37° C.; for Kd: read-out: Kp (equilibrium dissociation constant for enzyme-product complex); for Glow-type effectivity: kcat/Km divided by Km/Kp. As to the method:
Each luminescence trace was measured in 3 repetitions. The concentration of coelenterazine in the final reaction mixture ranged from 0.2 to 7.9 μM while the concentration of luciferase enzymes ranged from 17 to 640 nM.
An updated protocol applying new standards for collecting and fitting steady-state kinetic data was used. Unlike the classical initial velocity analysis, which requires a sophisticated luminometer calibration and quantum yield evaluation, luminescence data were recorded when letting the reaction proceed to completion beyond the initial linear phase. The recorded luminescence traces (rate vs. time) were transformed to reaction progress curves corresponding to cumulative luminescence in time. The transformed kinetic data (product vs. time) were fitted globally with the KinTek Explorer (KinTek Corporation, USA). The software allows for the input of a given kinetic model via a simple text description, and the program then derives the differential equations needed for numerical integration automatically.
Numerical integration of rate equations searching a set of kinetic parameters that produce a minimum χ^2 value was performed using the Bulirsch-Stoer algorithm with adaptive step size, and nonlinear regression to fit data was based on the Levenberg-Marquardt method. To account for fluctuations in experimental data, enzyme or substrate concentrations were slightly adjusted (5%) to derive best fits. Residuals were normalized by sigma values for each data point. The standard error was calculated from the covariance matrix during nonlinear regression. In addition to standard error values, more rigorous analysis of the variation of the kinetic parameters was accomplished by confidence contour analysis by using FitSpace Explorer (KinTek Corporation, USA). In these analyses, the lower and upper limits for each parameter were derived from the confidence contour obtained from setting χ^2 threshold at 0.9. The scaling factor, relating luminescence signal to product concentration, was applied as one of the fitted parameters, well constrained by end-point levels of kinetic traces recorded at particular substrate concentrations. Depletion of the available substrate after the reaction was ensured by repeated injection of the fresh enzyme.
The steady-state model, described by Equation (4), was used to obtain the values of turnover number kcat, Michaelis constant Km, and equilibrium dissociation constant for enzyme-product complex Kp. A conservative estimate for diffusion-limited substrate and product binding k1 and k3 (100 μM^−1·s^−1) was used as a fixed value to mimic the rapid equilibrium assumption. An alternative form of the model, described by Equation (5), was used to obtain estimates of kcat/Km directly by setting k−1=0.

The nature of data set [4]: Thermal unfolding by NanoDSF (tryptophan fluorescence). The data set is classed as physicochemical. To be noted: for Tm / Tonset: 100 mM potassium phosphate buffer pH 7.5, 1° C./min. On the procedure:
Thermal unfolding was studied using NanoDSF Prometheus (NanoTemper, Germany) by monitoring tryptophan fluorescence over the temperature range of 20 to 90° C., at a heating rate of 1° C./min. The melting temperatures (Tonset and Tm) were evaluated directly by ThermControl v2.0.2.
For orientation: In DSF a fluorescence change marks the thermal transition of the protein.

The nature of data set [5]: Anaerobic equilibrium binding of coelenteramide product (fluorescence). To be noted: pH 7.5, 30° C., read-out: Dissociation constant Kd, Coelenteramide product. As to the method: The experiments were performed under strictly anaerobic conditions to prevent enzymatic oxidation of interacting ligands. To do so, all the equipment and material, including water, buffer, pipettes, tips, syringes, microplates, and sealing, were made anaerobic by incubating them overnight in the anaerobic glovebox Belle MR2 (Belle Technology, UK). The box was filled with ultra-high purity (UHP) nitrogen atmosphere containing the residual oxygen concentration of 2.3 ppm, as determined by the oxygen meter O2M-3 (Belle Technology, UK). Liquids were aliquoted to the volume of maximally 50 mL and were stirred overnight in the box to release any dissolved oxygen. […] If no light was observed and the mixture remained yellow even after a minute, all the reagents were ready for anaerobic measurements.
In the anaerobic glovebox, 200 μL of a differently concentrated enzyme was put into a separate well in a microplate and into each of these wells, 5 μL of coelenterazine or coelenteramide stock solution was added. […] The extent of coelenterazine binding at each concentration was determined by measuring fluorescence spectra ranging from 480 to 580 nm upon excitation at 420 nm using the microplate spectrophotometer Varioskan LUX (Thermo Scientific, USA). Binding of coelenteramide was monitored by measuring fluorescence spectra ranging from 350 to 700 nm upon excitation at 330 nm. […]

The nature of data set [6]: Luminescence specific activity of the ancestral protein. The data set is classed as biochemical. The conditions noted are these: 7.9 μM coelenterazine, 37° C., compared to RLuc. On the procedure: Both the coelenterazine substrate and the AncHLD-RLuc enzyme were dissolved in 100 mM potassium phosphate buffer pH 7.5 and their resulting concentrations in the reaction mixture were 7.9 μM coelenterazine, 1.5 nM RLuc, and 2.8 μM AncHLD-RLuc. Bioluminescence activity traces were collected at 37° C. over the first 72.5 seconds immediately after injection of the substrate into the enzyme solution. The activity of each enzyme sample was measured in at least three independent experiments. The collected luminescence curves were integrated to obtain a linear increase of cumulative luminescence over time, while the slope gave the final value of activity, represented in RLU·s^−1. For each enzyme, the calculated activity was related to one milligram of the enzyme to get the final value of specific activity in RLU·s^−1·mg^−1.

The conditions of data set [7]: compared to RLuc; cited from earlier work.
The conditions of data set [8]: pH 7.5.
Method: Solid coelenterazine was dissolved in ice-cold ethanol and stored under a nitrogen atmosphere in dark glass vials at −20° C. Before each measurement, the concentration and maintained quality of the ethanol stock solutions were verified spectrophotometrically. A buffer solution of coelenterazine was prepared by mixing an appropriate volume of the ethanol stock solution with 100 mM phosphate buffer pH 7.5 immediately before the measurement. Tested luciferase enzyme samples were dissolved in the same 100 mM phosphate buffer pH 7.5. The enzymatic reaction was initiated inside the microplate reader FLUOstar OPTIMA (BMG Labtech, Germany) by the automatic addition of 225 μL buffer solution of coelenterazine into a microplate well containing 25 μL of enzyme solution. The resulting bioluminescence activity traces were collected at 37° C. until the luminescence intensity decreased to less than 0.5% of its maximal measured value. Each luminescence trace was measured in 3 repetitions. The concentration of coelenterazine in the final reaction mixture was 2.2 μM while the concentration of luciferase enzymes was 50 nM. The obtained luminescence kinetic data were fitted to an exponential decay or a logistic model using Origin 6.1 (OriginLab, USA) and the value of half-life t1/2, defined as the time when the initial luminescence signal decreased to 50%, was calculated.

B1: AncFT: Ancestral protein AncHLD-RLuc with the L9-α4 region transplanted from RLuc; glow-type coelenterazine-utilizing luciferase (protein)
chain: MVSASQRTTSTATGDEWWAKCKQVDVLDSEMSYYDSDPGKHKNTVIFLHGNPTSSYLWRNVIPHVEPLARCLAPDLIGMGKSGKLPNHSYRFVDHYRYLSAWFDSVNLPEKVTIVCHDWGSGLGFHWCNEHRDRVKGIVHMESVVDVIESWDEWPDIEEDIALIKSEAGEEMVLKKNFFIERLLPSSIMRKLSEEEMDAYREPFVEPGESRRPTLTWPREIPIKGDGPEDVIEIVKSYNKWLSTSKDIPKLFINADPGFFSNAIKKVTKNWPNQKTVTVKGLHFLQEDSPEEIGEAIADFLNELTK
modifications: Amino acid sequence of AncFT
Consider B1, for which, in data set [1], the Kd is 12 ± 5 µM and the Kd ratio substrate/product is 0.7 ± 0.3. In data set [2], the “k+2” value came to 31.9 ± 1.1 s⁻¹, the “k−1” value was determined as 367 ± 5 s⁻¹, the “k−2” value was 27.5 ± 0.4 s⁻¹ and the “k+1” value turned out to be 5.21e+06 ± 70000 M⁻¹ s⁻¹. In data set [3], the kcat was found to be 0.111 ± 0.001 s⁻¹, the Kd was determined as 0.5 ± 0.1 µM and the Glow-type effectivity worked out at 12 ± 3. In addition, the “Decrease of ratio Km/Kp” value in data set [3] (compared to the other tested variants) turned out to be 10 fold. Moreover, in data set [4], the melting temperature (Tm) is 56.6 ± 0.1 °C and the Tonset was determined as 50.5 ± 0.1 °C. For the same molecule, in data set [5], the Kd was found to be 16 ± 2 µM.

B2: AncHLD-RLuc: Reconstructed most-likelihood ancestral protein of Renilla reniformis luciferase and haloalkane dehalogenases (protein)
chain: MVSASQRTTSTATGDEWWAKCKQVDVLDSEMSYYDSDPGKHKNTVIFLHGNPTSSYLWRNVIPHVEPLARCLAPDLIGMGKSGKLPNHSYRFVDHYRYLSAWFDSVNLPEKVTIVCHDWGSGLGFHWCNEHRDRVKGIVHMESVVSPLKGWESFPETARDIFQALRSEAGEEMVLKKNFFIERLLPSSIMRKLSEEEMDAYREPFVEPGESRRPTLTWPREIPIKGDGPEDVIEIVKSYNKWLSTSKDIPKLFINADPGFFSNAIKKVTKNWPNQKTVTVKGLHFLQEDSPEEIGEAIADFLNELTK
modifications: Ancestral protein of Renilla reniformis luciferase
Turning to B2, in data set [2], the “k−1” value was 0.118 ± 0.071 s⁻¹ and the “k+1” value was determined as 3000 ± 3000 M⁻¹ s⁻¹. Moreover, in data set [4], the midpoint of thermal melting (Tm) is 64.9 ± 0.1 °C and the Tonset turned out to be 57.4 ± 0.1 °C. The “Apparent melting temperature higher than RLuc” value in data set [4] (difference to RLuc) came to 21.2 °C. The “Bioluminescence activity lower than the modern luciferase enzyme” value in data set [6] is > 100,000 fold.

B3: RLuc8: Eight-point mutant of RLuc (A55T, C124A, S130A, K136R, A143M, M185V, M253L, and S287L) (protein)
chain: MTSKVYDPEQRKRMITGPQWWARCKQMNVLDSFINYYDSEKHAENAVIFLHGNATSSYLWRHVVPHIEPVARCIIPDLIGMGKSGKSGNGSYRLLDHYKYLTAWFELLNLPKKIIFVGHDWGAALAFHYAYEHQDRIKAIVHMESVVDVIESWDEWPDIEEDIALIKSEEGEKMVLENNFFVETVLPSKIMRKLEPEEFAAYLEPFKEKGEVRRPTLSWPREIPLVKGGKPDVVQIVRNYNAYLRASDDLPKLFIESDPGFFSNAIVEGAKKFPNTEFVKVKGLHFLQEDAPDEMGKYIKSFVERVLKNEQ
modifications: RLuc8
On to B3, for which, in data set [1], the Kd came out at 37 ± 15 µM and the Kd ratio substrate/product is listed as 1.7 ± 0.7. Besides, in data set [2], the “k+2” value turned out to be 26.6 ± 1.1 s⁻¹, the “k−1” value turned out to be 305 ± 5 s⁻¹, the “k−2” value is 23.4 ± 0.2 s⁻¹ and the “k+1” value was 2.35e+06 ± 40000 M⁻¹ s⁻¹. In addition, in data set [3], the kcat is 4.7 ± 0.1 s⁻¹, the Kd was found to be 1.18 ± 0.05 µM and the Glow-type effectivity is on record as 2.3 ± 0.2. In data set [7], the Bioluminescence activity improvement is listed as 4.3 fold. Besides, in data set [4], the melting temperature (Tm) is 45.0 ± 0.1 °C and the Tonset was found to be 35.2 ± 0.1 °C. The “Half-life (t1/2)” value in data set [8] amounted to 6.36 ± 0.06 s. Besides, the Kd in data set [5] stood at 22 ± 2 µM.
